Data published in patent US20060193829A1.
Values belong to the binder of their own block, whether it stands above or below them. Positions of bridges follow the written chain, without caps; N, C: chain ends. No end group written: not given here. *: point of attachment. NHNH2 = NN*

Key:
[1] = molecular target: REFACTO® (recombinant factor VIII-like polypeptide consisting of amino acids 1-743 and 1638 through 2332 of human factor VIII) (human) (UniProt P00451); assay: phage ELISA, with target against without target
[2] = molecular target: REFACTO® (recombinant factor VIII-like polypeptide consisting of amino acids 1-743 and 1638 through 2332 of human factor VIII) (human) (UniProt P00451); assay: phage ELISA, phage isolate on factor VIII target, anti-M13-HRP
[3] = molecular target: REFACTO® (recombinant factor VIII-like polypeptide consisting of amino acids 1-743 and 1638 through 2332 of human factor VIII) (human) (UniProt P00451); assay: affinity column, peptide on Toyopearl Formyl 650-M; target in fraction by RP-HPLC
[4] = molecular target: REFACTO® (recombinant factor VIII-like polypeptide consisting of amino acids 1-743 and 1638 through 2332 of human factor VIII) (human) (UniProt P00451); assay: affinity column, peptide on Toyopearl Formyl 650-M; target in fraction by activity assay
[5] = molecular target: REFACTO® (recombinant factor VIII-like polypeptide consisting of amino acids 1-743 and 1638 through 2332 of human factor VIII) (human) (UniProt P00451); assay: batch binding to peptide beads; target in fraction by sandwich ELISA
[6] = molecular target: native human factor VIII (nhfVIII) (human) (UniProt P00451); assay: batch binding to regenerated peptide beads; target in fraction by sandwich ELISA
[7] = molecular target: REFACTO® (recombinant factor VIII-like polypeptide consisting of amino acids 1-743 and 1638 through 2332 of human factor VIII) (human) (UniProt P00451); assay: as above

native human factor VIII (nhfVIII) (human), sequence (P00451 20-2351): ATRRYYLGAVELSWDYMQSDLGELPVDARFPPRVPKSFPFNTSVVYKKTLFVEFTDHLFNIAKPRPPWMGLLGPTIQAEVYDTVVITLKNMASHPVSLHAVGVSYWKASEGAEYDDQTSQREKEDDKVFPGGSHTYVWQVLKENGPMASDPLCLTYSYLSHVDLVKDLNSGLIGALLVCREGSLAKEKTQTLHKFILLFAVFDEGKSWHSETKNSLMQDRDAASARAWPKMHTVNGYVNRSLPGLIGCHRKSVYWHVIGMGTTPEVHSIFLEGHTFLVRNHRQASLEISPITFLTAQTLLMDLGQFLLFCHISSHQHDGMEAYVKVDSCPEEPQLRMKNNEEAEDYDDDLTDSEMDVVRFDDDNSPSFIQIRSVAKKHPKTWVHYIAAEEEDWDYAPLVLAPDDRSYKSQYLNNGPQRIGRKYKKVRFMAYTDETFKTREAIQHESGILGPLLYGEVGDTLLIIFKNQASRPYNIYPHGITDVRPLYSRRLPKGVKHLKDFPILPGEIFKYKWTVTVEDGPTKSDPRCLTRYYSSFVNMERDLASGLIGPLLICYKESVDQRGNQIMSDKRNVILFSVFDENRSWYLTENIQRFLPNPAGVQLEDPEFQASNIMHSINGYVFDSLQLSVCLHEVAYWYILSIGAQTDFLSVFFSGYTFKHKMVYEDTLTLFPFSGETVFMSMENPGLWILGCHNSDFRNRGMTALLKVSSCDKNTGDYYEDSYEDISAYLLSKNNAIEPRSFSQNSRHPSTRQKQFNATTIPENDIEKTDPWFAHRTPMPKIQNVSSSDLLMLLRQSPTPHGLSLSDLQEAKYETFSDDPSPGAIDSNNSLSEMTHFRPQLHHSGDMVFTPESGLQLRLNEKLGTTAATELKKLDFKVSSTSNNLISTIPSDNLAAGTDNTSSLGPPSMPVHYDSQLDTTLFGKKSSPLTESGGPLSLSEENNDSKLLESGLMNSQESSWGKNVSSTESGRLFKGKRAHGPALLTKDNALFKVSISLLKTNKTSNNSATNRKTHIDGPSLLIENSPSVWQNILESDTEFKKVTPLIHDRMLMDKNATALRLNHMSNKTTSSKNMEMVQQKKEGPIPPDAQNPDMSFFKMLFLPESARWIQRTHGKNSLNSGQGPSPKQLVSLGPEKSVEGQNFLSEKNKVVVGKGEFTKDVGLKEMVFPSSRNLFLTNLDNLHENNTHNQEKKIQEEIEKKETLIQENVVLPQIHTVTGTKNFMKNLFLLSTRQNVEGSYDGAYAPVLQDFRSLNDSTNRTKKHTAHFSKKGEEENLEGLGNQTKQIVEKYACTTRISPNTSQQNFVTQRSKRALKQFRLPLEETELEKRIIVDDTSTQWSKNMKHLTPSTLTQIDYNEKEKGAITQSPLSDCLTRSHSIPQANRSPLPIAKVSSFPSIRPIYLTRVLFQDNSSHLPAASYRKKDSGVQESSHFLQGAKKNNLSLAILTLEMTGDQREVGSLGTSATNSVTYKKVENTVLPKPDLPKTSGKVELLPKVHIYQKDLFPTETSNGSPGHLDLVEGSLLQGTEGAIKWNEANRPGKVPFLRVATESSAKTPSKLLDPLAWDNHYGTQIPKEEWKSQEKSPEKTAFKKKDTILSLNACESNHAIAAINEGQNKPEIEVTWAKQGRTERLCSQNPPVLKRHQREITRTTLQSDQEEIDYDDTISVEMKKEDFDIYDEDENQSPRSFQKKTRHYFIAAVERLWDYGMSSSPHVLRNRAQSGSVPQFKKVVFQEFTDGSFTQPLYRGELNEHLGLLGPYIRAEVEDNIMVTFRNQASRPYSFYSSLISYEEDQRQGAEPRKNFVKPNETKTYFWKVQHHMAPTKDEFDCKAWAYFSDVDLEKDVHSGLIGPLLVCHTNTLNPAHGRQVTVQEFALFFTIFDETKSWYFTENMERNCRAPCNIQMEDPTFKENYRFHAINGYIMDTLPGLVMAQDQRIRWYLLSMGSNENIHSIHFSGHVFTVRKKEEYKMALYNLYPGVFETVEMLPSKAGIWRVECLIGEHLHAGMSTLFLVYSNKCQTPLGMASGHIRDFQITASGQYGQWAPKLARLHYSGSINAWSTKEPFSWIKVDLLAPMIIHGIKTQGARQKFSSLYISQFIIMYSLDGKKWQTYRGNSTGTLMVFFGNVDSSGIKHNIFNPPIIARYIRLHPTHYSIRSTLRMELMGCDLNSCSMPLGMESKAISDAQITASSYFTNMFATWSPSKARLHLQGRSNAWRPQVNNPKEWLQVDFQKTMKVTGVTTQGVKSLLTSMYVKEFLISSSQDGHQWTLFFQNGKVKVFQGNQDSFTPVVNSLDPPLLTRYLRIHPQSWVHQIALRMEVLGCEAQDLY
REFACTO® (recombinant factor VIII-like polypeptide consisting of amino acids 1-743 and 1638 through 2332 of human factor VIII) (human), sequence (P00451 20-762, chain 1 of 2): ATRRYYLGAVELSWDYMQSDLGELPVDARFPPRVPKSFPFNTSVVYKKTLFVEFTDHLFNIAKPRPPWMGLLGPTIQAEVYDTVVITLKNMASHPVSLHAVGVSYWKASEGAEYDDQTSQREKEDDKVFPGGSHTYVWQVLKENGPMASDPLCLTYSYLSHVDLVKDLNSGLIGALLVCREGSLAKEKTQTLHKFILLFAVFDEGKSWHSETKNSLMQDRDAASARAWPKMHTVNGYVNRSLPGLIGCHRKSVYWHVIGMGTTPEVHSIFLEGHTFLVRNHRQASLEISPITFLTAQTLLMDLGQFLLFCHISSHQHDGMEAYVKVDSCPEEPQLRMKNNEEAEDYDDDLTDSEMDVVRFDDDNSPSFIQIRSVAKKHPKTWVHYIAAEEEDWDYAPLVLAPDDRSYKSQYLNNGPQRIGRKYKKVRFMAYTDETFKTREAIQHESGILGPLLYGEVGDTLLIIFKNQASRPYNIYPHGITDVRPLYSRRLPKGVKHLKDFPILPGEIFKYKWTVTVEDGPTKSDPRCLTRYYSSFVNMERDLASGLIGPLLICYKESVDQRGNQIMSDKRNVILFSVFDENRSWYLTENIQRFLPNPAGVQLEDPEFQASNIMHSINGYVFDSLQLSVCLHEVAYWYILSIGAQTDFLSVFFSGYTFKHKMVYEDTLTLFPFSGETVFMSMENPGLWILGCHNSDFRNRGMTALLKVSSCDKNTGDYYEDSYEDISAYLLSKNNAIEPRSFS
REFACTO® (recombinant factor VIII-like polypeptide consisting of amino acids 1-743 and 1638 through 2332 of human factor VIII) (human), sequence (P00451 1657-2351, chain 2 of 2): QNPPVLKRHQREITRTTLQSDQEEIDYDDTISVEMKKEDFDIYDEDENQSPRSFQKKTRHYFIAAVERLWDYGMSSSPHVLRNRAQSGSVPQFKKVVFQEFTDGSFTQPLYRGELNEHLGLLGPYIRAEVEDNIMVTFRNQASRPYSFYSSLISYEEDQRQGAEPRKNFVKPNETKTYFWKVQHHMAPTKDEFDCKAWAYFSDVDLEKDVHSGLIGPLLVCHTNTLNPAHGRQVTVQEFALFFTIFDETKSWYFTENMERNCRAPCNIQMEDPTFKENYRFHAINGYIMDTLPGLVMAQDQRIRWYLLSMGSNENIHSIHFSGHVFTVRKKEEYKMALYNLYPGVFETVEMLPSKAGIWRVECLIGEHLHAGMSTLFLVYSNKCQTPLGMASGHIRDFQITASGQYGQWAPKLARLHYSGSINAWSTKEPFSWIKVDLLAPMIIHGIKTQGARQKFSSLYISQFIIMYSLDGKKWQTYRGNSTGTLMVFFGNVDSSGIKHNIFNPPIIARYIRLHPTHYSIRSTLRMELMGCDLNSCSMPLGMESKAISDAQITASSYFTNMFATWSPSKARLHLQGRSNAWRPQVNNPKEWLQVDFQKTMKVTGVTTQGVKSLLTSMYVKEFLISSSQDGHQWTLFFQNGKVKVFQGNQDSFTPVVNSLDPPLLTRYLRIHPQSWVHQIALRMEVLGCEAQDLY

R (ratio of the ELISA score with target present to the ELISA score without target) [1]: 10
ELISA signal [2]: 0.5 OD630
Binder: HSCGSWLFPCFA [TN7 isolate A06]

R (ratio of the ELISA score with target present to the ELISA score without target) [1]: 18
ELISA signal [2]: 1 OD630
Binder: FCWVFPFNHCS [TN9 isolate 12 (SEQ ID NO: 28)]

ELISA signal [2]: 0.1 OD630
Binder: FHCIGVWFCLH [TN7 isolate A09]

ELISA signal [2]: 0.2 OD630
Binder: FCWVHPFAHCL [TN9 isolate 02 (SEQ ID NO: 23)]

R (ratio of the ELISA score with target present to the ELISA score without target) [1]: 8
Binder: FCWVFQFRHCH [TN9/1 isolate … (SEQ ID NO: 77)]

R (ratio of the ELISA score with target present to the ELISA score without target) [1]: 14
Binder: FCWVFNWVHCD [TN9/1 isolate … (SEQ ID NO: 75)]

R (ratio of the ELISA score with target present to the ELISA score without target) [1]: 24
ELISA signal [2]: 1.1 OD630
Binder: FCWVFNFSHCS [TN9 isolate 03 (SEQ ID NO: 26)]

ELISA signal [2]: 0.2 OD630
Binder: PHCNWLFPCSL [TN7 isolate D03]

% recovery, Elution A [3]: 28.8%
% recovery, Elution B [3]: 0%
% recovery, Flow [3]: 24.6%
% recovery, pH2 [3]: 0%
% recovery, Elution A [4]: 0%
% recovery, Flow [4]: 28.4%
Binder: AEGTGDFCWVFPFHHCFDPGPEGGGS-NHNH2 (disulfide 8-16 (inferred)) [Affinity ligand CS-460]

% recovery, Elution A [3]: 1.4%
% recovery, Elution B [3]: 0%
% recovery, Flow [3]: 65.8%
% recovery, pH2 [3]: 0%
% recovery, Elution A [4]: 1.3%
% recovery, Flow [4]: 61.6%
Binder: AEGTGDFHCIGVWFCLHDPGPEGGGS-NHNH2 (disulfide 9-15 (inferred)) [Affinity ligand CS-455]

R (ratio of the ELISA score with target present to the ELISA score without target) [1]: 6
ELISA signal [2]: 0.3 OD630
Binder: HRCGSWLHPCLA [TN8 isolate 11/G10 (SEQ ID NO: 21)]

R (ratio of the ELISA score with target present to the ELISA score without target) [1]: 8
ELISA signal [2]: 0.4 OD630
Binder: HLCFAWFRPCDA [TN8 isolate 12 (SEQ ID NO: 17)]

R (ratio of the ELISA score with target present to the ELISA score without target) [1]: 6
ELISA signal [2]: 0.4 OD630
Binder: HLCGAWFRPCDA [TN8 isolate 02 (SEQ ID NO: 16)]

R (ratio of the ELISA score with target present to the ELISA score without target) [1]: 6
ELISA signal [2]: 0.3 OD630
Binder: FCWVFPFHHCF [TN9 isolate 06 (SEQ ID NO: 30)]

R (ratio of the ELISA score with target present to the ELISA score without target) [1]: 20
ELISA signal [2]: 1 OD630
Binder: HPCGAWLRPCYN [TN8 isolate 08 (SEQ ID NO: 20)]

R (ratio of the ELISA score with target present to the ELISA score without target) [1]: 8
ELISA signal [2]: 0.4 OD630
Binder: FGCSWLFPCPF [TN7 isolate A08]

ELISA signal [2]: 0.2 OD630
Binder: HGCGAWFRPCHA [TN8 isolate 01 (SEQ ID NO: 18)]

R (ratio of the ELISA score with target present to the ELISA score without target) [1]: 24
Binder: FCWVFAFDHCH (not fully specified (bridges); cysteine pairing not given here) [TN9/1 isolate … (SEQ ID NO: 71)]

R (ratio of the ELISA score with target present to the ELISA score without target) [1]: 6
ELISA signal [2]: 0.3 OD630
Binder: HPCGSWLHPCAA [TN8 isolate 04 (SEQ ID NO: 12)]

R (ratio of the ELISA score with target present to the ELISA score without target) [1]: 8
ELISA signal [2]: 0.5 OD630
Binder: FCHVFNFVHCS [TN9 isolate 01 (SEQ ID NO: 31)]

R (ratio of the ELISA score with target present to the ELISA score without target) [1]: 24
ELISA signal [2]: 1.1 OD630
Binder: FCWVFPFQHCA [TN9 isolate 09 (SEQ ID NO: 29)]

R (ratio of the ELISA score with target present to the ELISA score without target) [1]: 8
ELISA signal [2]: 0.3 OD630
Binder: HPCGSWFNPCAH [TN8 isolate 02 (SEQ ID NO: 13)]

ELISA signal [2]: 0.2 OD630
Binder: HPCGAWFNPCPR [TN8 isolate 01 (SEQ ID NO: 19)]

R (ratio of the ELISA score with target present to the ELISA score without target) [1]: 16
ELISA signal [2]: 0.7 OD630
Binder: HPCGSWFRPCFH [TN8 isolate 02 (SEQ ID NO: 14)]

% recovery, Elution A [3]: 43.2%
% recovery, Elution B [3]: 0%
% recovery, Flow [3]: 0%
% recovery, pH2 [3]: 0%
% recovery, Elution A [4]: 26.4%
% recovery, Flow [4]: 0%
Binder: AEGTGDHPCGSWLRPCLHDPGPEGGGS-NHNH2 (disulfide 9-16 (inferred)) [Affinity ligand CS-453]

% of Input Recovered in Eluate [5]: 49%
% of Input Recovered in Unbound [5]: 24%
% of Input Recovered in Wash [5]: 12%
% of Total Recovered in Eluate [6]: 21%
% of Total Recovered in Unbound [6]: 67%
% of Total Recovered in Wash [6]: 12%
% recovery, Elution A [3]: 45.1%
% recovery, Elution B [3]: 0%
% recovery, Flow [3]: 2.5%
% recovery, pH2 [3]: 0%
% recovery, Elution A [4]: 42.4%
% recovery, Flow [4]: 2.2%
Binder: AEGTGDHLCGAWFRPCDADPGPEGGGS-NHNH2 (disulfide 9-16 (inferred)) [Affinity ligand CS-454]

R (ratio of the ELISA score with target present to the ELISA score without target) [1]: 8
ELISA signal [2]: 0.4 OD630
Binder: FCWVFPFNHCD [TN9 isolate 02 (SEQ ID NO: 27)]

% of Input Recovered in Eluate [5]: 47%
% of Input Recovered in Unbound [5]: 20%
% of Input Recovered in Wash [5]: 10%
% of Total Recovered in Eluate [7]: 27%
% of Total Recovered in Unbound [7]: 59%
% of Total Recovered in Wash [7]: 14%
% of Total Recovered in Eluate [6]: 39%
% of Total Recovered in Unbound [6]: 48%
% of Total Recovered in Wash [6]: 13%
% recovery, Elution A [3]: 54.3%
% recovery, Elution B [3]: 0%
% recovery, Flow [3]: 1.8%
% recovery, pH2 [3]: 0%
% recovery, Elution A [4]: 55.6%
% recovery, Flow [4]: 1.4%
Binder: AEGTGDFCWVFAFDHCHDPGPEGGGS-NHNH2 (disulfide 8-16 (inferred)) [Affinity ligand CS-458]

R (ratio of the ELISA score with target present to the ELISA score without target) [1]: 16
ELISA signal [2]: 1 OD630
Binder: HPCGSWLRPCLH [TN8 isolate 10 (SEQ ID NO: 10)]

R (ratio of the ELISA score with target present to the ELISA score without target) [1]: 6
ELISA signal [2]: 0.3 OD630
Binder: RLCSWISPCSA [TN7 isolate D04]

ELISA signal [2]: 0.2 OD630
Binder: FCHVFPFLHCD [TN9 isolate 11 (SEQ ID NO: 32)]

% of Input Recovered in Eluate [5]: 24%
% of Input Recovered in Unbound [5]: 47%
% of Input Recovered in Wash [5]: 20%
% of Total Recovered in Eluate [6]: 16%
% of Total Recovered in Unbound [6]: 70%
% of Total Recovered in Wash [6]: 14%
% recovery, Elution A [3]: 44.8%
% recovery, Elution B [3]: 0%
% recovery, Flow [3]: 3.4%
% recovery, pH2 [3]: 0%
% recovery, Elution A [4]: 43%
% recovery, Flow [4]: 4.8%
Binder: AEGTGDFGCSWLFPCPFDPGPEGGGS-NHNH2 (disulfide 9-15 (inferred)) [Affinity ligand CS-456]

R (ratio of the ELISA score with target present to the ELISA score without target) [1]: 6
ELISA signal [2]: 0.4 OD630
Binder: HACGSWFRPCHA [TN8 isolate 07 (SEQ ID NO: 15)]

ELISA signal [2]: 0.2 OD630
Binder: RGCGSWLRPCLD [TN8 isolate 05 (SEQ ID NO: 11)]

% recovery, Elution A [3]: 42.1%
% recovery, Elution B [3]: 0%
% recovery, Flow [3]: 1.6%
% recovery, pH2 [3]: 0%
% recovery, Elution A [4]: 31.2%
% recovery, Flow [4]: 6.4%
Binder: AEGTGDFCWVFPFQHCADPGPEGGGS-NHNH2 (disulfide 8-16 (inferred)) [Affinity ligand CS-459]

ELISA signal [2]: 0.2 OD630
Binder: FCHVFHFSHCD [TN9 isolate 01 (SEQ ID NO: 24)]

R (ratio of the ELISA score with target present to the ELISA score without target) [1]: 10
ELISA signal [2]: 0.5 OD630
Binder: RLCSWVSPCSA [TN7 isolate C5/G10]
